Data from US7229755 (Dana-Farber, dated 2007).

Columns and labels:
[1] = biological target: (Gal4 binding domain)-hMsh2 fusion (pAS1-hMSH2) (human, UniProt P04386 1-147 (Saccharomyces cerevisiae entry), limits assumed); assay: cell-based or functional assay
[2] = biological target: T1, hMsh2 protein with a hexa-HIS and factor Xa leader peptide at the N-terminus (overproduced in E. coli from a … (human, UniProt P43246 1-934)); assay: gel-shift (supershift) of hMsh2 bound to a 32P-labelled 39-bp GT-mismatch duplex, with E. coli extract containing hMlh1
T1 construct: The leader peptide was not cleaved; The preparation was more than 50% pure; also called human Msh2; MSH2hu protein; not shown: hexa-HIS and factor Xa leader peptide from the pET vector derivative (Invitrogen)
Protocol: Mismatch binding by human mismatch repair proteins was studied using a gel-shift binding assay. Briefly, protein fractions are incubated with a ^32P-labelled 39-basepair oligonucleotide duplex that was designed to minimize intramolecular interactions (Oligo Designs), and also contained a GT mismatch at position 20. Incubations were done for 10 minutes at 23° C. in 20 mM Tris (pH 7.5), 50 mM KCl, 1 mM DTT, and 0.1 mM EDTA to allow formation of protein-DNA complexes. Several different competitor nucleic acids (e.g. poly dI-dC, an otherwise identical 39-mer that lacked the mismatch, and/or unlabelled mismatched substrate) were added to minimize nonspecific binding. Reactions were then loaded onto a 6% acrylamide gel in TBE, and were electrophoresed.

β-galactosidase activity (GAL4 promoter-β-galactosidase reporter, yeast Two-Hybrid) [1] [fold]	binding result [2]	Binder
~100	–	(Gal4 activation domain)-hMlh1 fusion (pACTII-hMLH1) (other, not shown: large carriers) MSFVAGVIRRLDETVVNRIAAGEVIQRPANAIKEMIENCLDAKSTSIQVIVKEGGLKLIQIQDNGTGIRKEDLDIVCERFTTSKLQSFEDLASISTYGFRGEALASISHVAHVTITTKTADGKCAYRASYSDGKLKAPPKPCAGNQGTQITVEDLFYNIATRRKALKNPSEEYGKILEVVGRYSVHNAGISFSVKKQGETVADVRTLPNASTVDNIRSIFGNAVSRELIEIGCEDKTLAFKMNGYISNANYSVKKCIFLLFINHRLVESTSLRKAIETVYAAYLPKNTHPFLYLSLEISPQNVDVNVHPTKHEVHFLHEESILERVQQHIESKLLGSNSSRMYFTQTLLPGLAGPSGEMVKSTTSLTSSSTSGSSDKVYAHQMVRTDSREQKLDAFLQPLSKPLSSQPQAIVTEDKTDISSGRARQQDEEMLELPAPAEVAAKNQSLEGDTTKGTSEMSEKRGPTSSNPRKRHREDSDVEMVEDDSRKEMTAACTPRRRIINLTSVLSLQEEINEQGHEVLREMLHNHSFVGCVNPQWALAQHQTKLYLLNTTKLSEELFYQILIYDFANFGVLRLSEPAPLFDLAMLALDSPESGWTEEDGPKEGLAEYIVEFLKKKAEMLADYFSLEIDEEGNLIGLPLLIDNYVPPLEGLPIFILRLATEVNWDEEKECFESLSKECAMFYSIRKQYISEESTLSGQQSEVPGSIPNSWKWTVEHIVYKALRSHILPPKHFTEDGNILQLANLPDLYKVFERC
–	binds	hMlh1 protein overproduced in E. coli from pET-hMLH1 constructs (used as clarified bacterial extract) (other, The protein was not purified and was used as clarified bacterial extract; also called hMLH1 gene product) MSFVAGVIRRLDETVVNRIAAGEVIQRPANAIKEMIENCLDAKSTSIQVIVKEGGLKLIQIQDNGTGIRKEDLDIVCERFTTSKLQSFEDLASISTYGFRGEALASISHVAHVTITTKTADGKCAYRASYSDGKLKAPPKPCAGNQGTQITVEDLFYNIATRRKALKNPSEEYGKILEVVGRYSVHNAGISFSVKKQGETVADVRTLPNASTVDNIRSIFGNAVSRELIEIGCEDKTLAFKMNGYISNANYSVKKCIFLLFINHRLVESTSLRKAIETVYAAYLPKNTHPFLYLSLEISPQNVDVNVHPTKHEVHFLHEESILERVQQHIESKLLGSNSSRMYFTQTLLPGLAGPSGEMVKSTTSLTSSSTSGSSDKVYAHQMVRTDSREQKLDAFLQPLSKPLSSQPQAIVTEDKTDISSGRARQQDEEMLELPAPAEVAAKNQSLEGDTTKGTSEMSEKRGPTSSNPRKRHREDSDVEMVEDDSRKEMTAACTPRRRIINLTSVLSLQEEINEQGHEVLREMLHNHSFVGCVNPQWALAQHQTKLYLLNTTKLSEELFYQILIYDFANFGVLRLSEPAPLFDLAMLALDSPESGWTEEDGPKEGLAEYIVEFLKKKAEMLADYFSLEIDEEGNLIGLPLLIDNYVPPLEGLPIFILRLATEVNWDEEKECFESLSKECAMFYSIRKQYISEESTLSGQQSEVPGSIPNSWKWTVEHIVYKALRSHILPPKHFTEDGNILQLANLPDLYKVFERC
